The values that follow come from patent US7151087 (US Dept. of Health and Human Services, dated 2006).

T1: CC CKR1, stably expressed on HEK 293 cells (Homo sapiens (Human), UniProt P32246 1-355)
T1 construct: also called CC CKLR1
T1 sequence: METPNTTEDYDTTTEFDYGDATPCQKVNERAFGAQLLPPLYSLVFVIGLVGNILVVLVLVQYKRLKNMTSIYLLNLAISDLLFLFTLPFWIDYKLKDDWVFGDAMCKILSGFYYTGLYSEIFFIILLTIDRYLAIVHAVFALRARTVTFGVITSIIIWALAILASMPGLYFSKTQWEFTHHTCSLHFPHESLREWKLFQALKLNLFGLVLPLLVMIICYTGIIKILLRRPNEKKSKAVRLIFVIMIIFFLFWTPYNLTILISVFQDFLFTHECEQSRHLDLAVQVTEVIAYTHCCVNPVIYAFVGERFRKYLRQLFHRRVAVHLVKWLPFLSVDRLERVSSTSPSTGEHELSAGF

B1: MIP-1β (ligand, human, UniProt P13236 24-92, looked up)
chain: APMGSDPPTACCFSYTARKLPRNFVVDYYETSSLCSQPAVVFQTKRSKQVCADPSESWVQEYVYDLELN
B2: MCP-3 (ligand)
chain: not shown
notes: also called unlabeled MCP-3
B3: CC CKR2B, stably expressed on HEK 293 cells (receptor)
chain: MLSTSRSRFIRNTNESGEEVTTFFDYDYGAPCHKFDVKQIGAQLLPPLYSLVFIFGFVGNMLVVLILINCKKLKCLTDIYLLNLAISDLLFLITLPLWAHSAANEWVFGNAMCKLFTGLYHIGYFGGIFFIILLTIDRYLAIVHAVFALKARTVTFGVVTSVITWLVAVFASVPGIIFTKCQKEDSVYVCGPYFPRGWNNFHTIMRNILGLVLPLLIMVICYSGILKTLLRCRNEKKRHRAVRVIFTIMIVYFLFWTPYNIVILLNTFQEFFGLSNCESTSQLDQATQVTETLGMTHCCINPIIYAFVGEKFRRYLSVFFRKHITKRFCKQCPVFYRETVDGVTSTNTPSTGEQEVSAGL
notes: also called CCR2b
B4: RANTES (ligand, human, UniProt P13501 24-91, looked up)
chain: SPYSSDTTPCCFAYIARPLPRAHIKEYFYTSGKCSNPAVVFVTRKNRQVCANPEKKWVREYINSLEMS
notes: also called unlabeled RANTES
B5: MIP-1α (ligand, human, UniProt P10147 23-92, looked up)
chain: ASLAADTPTACCFSYTSRQIPQNFIADYFETSSQCSKPGVIFLTKRSRQVCADPSEEWVQKYVSDLELSA
notes: also called unlabeled MIP-1α

Assay [1] concerns the target T1, CC CKR1, stably expressed on HEK 293 …. The assay is described as follows: homologous competition against ^125I-MIP-1β on CC CKR1 cells.
Procedure: (§1) After incubation for 1 h at 4° C. or 37° C., unbound chemokines were separated from cells by pelleting through a 10% sucrose/PBS cushion, and the cell-associated counts were determined.
Assay [2] deals with T2, CC chemokine receptor 5 (CCR5), clone 8.5 cDNA, stably expressed on HEK 293 cells (human, UniProt P51681 1-352).
T2 construct: also called CC CKR5; CCR5 transfectants
T2 sequence (P51681 whole entry): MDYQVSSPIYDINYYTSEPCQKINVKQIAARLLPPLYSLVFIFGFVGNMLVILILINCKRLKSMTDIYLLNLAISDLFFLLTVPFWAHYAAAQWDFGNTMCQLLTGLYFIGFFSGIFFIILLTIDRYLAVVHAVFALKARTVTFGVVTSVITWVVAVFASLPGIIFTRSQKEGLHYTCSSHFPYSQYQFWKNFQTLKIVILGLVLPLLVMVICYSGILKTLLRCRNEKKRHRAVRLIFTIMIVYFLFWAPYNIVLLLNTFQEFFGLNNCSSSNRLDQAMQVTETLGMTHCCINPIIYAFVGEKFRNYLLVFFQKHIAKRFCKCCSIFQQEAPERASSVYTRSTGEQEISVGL
Put plainly: homologous competition against ^125I-MIP-1β; reference CC CKR1 cells.
Procedure: as §1

Assay [3] addresses T2, CC chemokine receptor 5 (CCR5), clone …. Put plainly: homologous competition against ^125I-MIP-1β on CCR5.1 cells.
Procedure: as §1
In assay [4] the target is T1, CC CKR1, stably expressed on HEK 293 …. The assay is described as follows: radioligand binding at 37° C. to CC CKR1-transfected HEK 293 cells.
Procedure: as §1
The assay “RANTES” deals with B4. The assay is described as follows: radioligand binding to intact transfected HEK 293 cells, 0.2 nM ^125I-chemokine.
Procedure: as §1
The assay “MIP-1β” deals with B1. Described as above.
Procedure: as §1
The assay “MIP-1α” addresses B5. Described as above.
Procedure: as §1
Assay [5] deals with T1, CC CKR1, stably expressed on HEK 293 …. The assay is described as follows: radioligand binding at 37° C. to CC CKR1 cells.
Procedure: as §1
For assay [6] the target is unchanged. Put plainly: homologous competition against ^125I-MIP-1α; reference CCR5.1 cells.
Procedure: as §1
For assay [7] the target is unchanged. Put plainly: heterologous competition against ^125I-RANTES on CC CKR1 cells, 37° C.
Procedure: as §1
Assay [8] has as its target T2, CC chemokine receptor 5 (CCR5), clone …. The assay is described as follows: homologous competition against ^125I-MIP-1α on CCR5.1 cells.
Procedure: as §1
Assay [9] addresses T1, CC CKR1, stably expressed on HEK 293 …. Put plainly: homologous competition against ^125I-MIP-1α on CC CKR1-transfected HEK 293 cells, 4° C.
Procedure: as §1
Each of the six CCR5 transfectants were tested at 4° C.
Assay [10] has the same target. Put plainly: homologous competition against ^125I-MIP-1α on CC CKR1 cells.
Procedure: as §1

Broadly, the IC50 is the concentration that inhibits the measured activity by half. Lower therefore signals higher potency. As to B1, the IC50 in assay [1] is around 200 nM; in assay [3], around 100 nM. In addition, the “fold more effective competition on CCR5.1 than on CC CKR1” value in assay [2] was around 2 fold.

Turning to B2, the binding result in assay [4] is “binds”.

B3: the binding result with RANTES, with MIP-1β and with MIP-1α was “no binding” throughout.

For the molecule B4, the binding result in assay [5] is recorded as “binds”.

By Ki is commonly meant the equilibrium dissociation constant of an inhibitor or competing ligand from its target. High values mean a looser hold on the target, low ones a stronger hold on the target. Take B5: the “fold more effective competition on CC CKR1 than on CCR5.1” value in assay [6] was 20 fold. In addition, the half-inhibitory concentration (IC50) in assay [7] was around 20 nM; in assay [8] it was around 100 nM; in assay [10], around 5 nM. Affinity in assay [9] was put at a Ki of 10 nM.
